US20140322759
Changes are numbered by the printed parent chain.

Assays:
Assay in all cases: EMSA
[1] = biological target: T1, phi29 DNA polymerase K512E K512E (Bacillus phage phi29) (UniProt P03680); conditions: SD 27.6; unit not given (μM in assay); pH 7.9, 66 mM K-acetate, 30 C
T1 sequence: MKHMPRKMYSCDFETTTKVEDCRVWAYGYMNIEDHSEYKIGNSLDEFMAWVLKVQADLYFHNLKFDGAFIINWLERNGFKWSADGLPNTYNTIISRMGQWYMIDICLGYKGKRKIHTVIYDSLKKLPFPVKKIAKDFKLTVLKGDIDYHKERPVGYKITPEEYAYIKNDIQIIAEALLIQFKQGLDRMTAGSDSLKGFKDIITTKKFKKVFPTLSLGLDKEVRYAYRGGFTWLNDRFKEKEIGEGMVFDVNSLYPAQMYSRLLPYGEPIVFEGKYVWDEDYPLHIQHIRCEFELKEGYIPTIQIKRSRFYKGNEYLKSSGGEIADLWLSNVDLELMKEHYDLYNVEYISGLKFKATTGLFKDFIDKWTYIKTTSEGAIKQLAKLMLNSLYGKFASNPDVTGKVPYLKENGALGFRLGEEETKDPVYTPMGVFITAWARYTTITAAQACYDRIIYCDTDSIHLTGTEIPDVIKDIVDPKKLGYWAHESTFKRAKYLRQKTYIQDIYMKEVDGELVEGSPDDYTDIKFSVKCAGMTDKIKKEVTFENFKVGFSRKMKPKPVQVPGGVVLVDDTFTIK

[2] = biological target: T2, phi29 DNA polymerase V51A V51A (Bacillus phage phi29) (UniProt P03680); conditions: SD 10.8; unit not given (μM in assay); pH 7.9, 66 mM K-acetate, 30 C
T2 sequence: T1 sequence with V51A, E512K

[3] = biological target: T3, phi29 DNA polymerase Mut_4 M8R,V51A,M97T,G197D,E221K (Bacillus phage phi29) (UniProt P03680); conditions: SD 10.6; unit not given (μM in assay); pH 7.9, 66 mM K-acetate, 30 C
T3 sequence: T1 sequence with M8R, V51A, M97T, G197D, E221K, E512K

[4] = biological target: T4, phi29 DNA polymerase wild-type (Bacillus phage phi29) (UniProt P03680); conditions: SD 5.7; unit not printed in table (enzyme titrated 0-600 μM, 2 μM DNA as printed); Tris-acetate pH 7.9, 66 mM K-acetate, no Mg listed, 30 C
T4 sequence: T1 sequence with E512K

“GATCACAGTGAGTAC / TCTATTGTACTCACTGTGATC [15-mer/21-mer primer/template]” was tested, and the Kd [1] was 54 µM, the Kd [2] was 52 µM and the Kd [3] was 67 µM. The Kd [4] was 76 µM.
